Reference: patent US20230140293A1

Columns and labels:
Assay in all cases: cell-based or functional assay
[1] = target: CH0505.w4.3 Env, Env-pseudotyped virus produced in 293T cells (HIV-1)
[2] = target: CH0505.w4.3 Env, pseudotyped virus produced in 293S GnTI- cells (HIV-1)
[3] = target: CH0505TF Env, Env-pseudotyped virus produced in 293T cells (HIV-1)
[4] = target: CH0505TF Env, pseudotyped virus produced in 293S GnTI- cells (HIV-1)
[5] = target: CH0505TF.G458Y Env, Env-pseudotyped virus produced in 293T cells (HIV-1)
[6] = target: CH0505TF.G458Y Env, pseudotyped virus produced in 293S GnTI- cells (HIV-1)
[7] = target: CH0505TF.gly3.197 Env, Env-pseudotyped virus produced in 293T cells (HIV-1)
[8] = target: CH0505TF.gly3.197 Env, pseudotyped virus produced in 293S GnTI- cells (HIV-1)
[9] = target: CH0505TF.gly3.276 Env, Env-pseudotyped virus produced in 293T cells (HIV-1)
[10] = target: CH0505TF.gly3.276 Env, pseudotyped virus produced in 293S GnTI- cells (HIV-1)
[11] = target: CH0505TF.gly3.461 Env, Env-pseudotyped virus produced in 293T cells (HIV-1)
[12] = target: CH0505TF.gly3.461 Env, pseudotyped virus produced in 293S GnTI- cells (HIV-1)
[13] = target: CH0505TF.gly4 Env, Env-pseudotyped virus produced in 293T cells (HIV-1)
[14] = target: CH0505TF.gly4 Env, pseudotyped virus produced in 293S GnTI- cells (HIV-1)
[15] = target: CH0505TF.gly4.G458Y Env, pseudotyped virus produced in 293S GnTI- cells (HIV-1)
[16] = target: CH0505TF.gly4.G458Y Env, pseudotyped virus produced in 293T cells (HIV-1)
[17] = target: HIV-1 Env 426c, Env-pseudotyped virus produced in 293S GnTI- cells (Man5-enriched) (HIV-1 clade C strain 426c)
[18] = target: HIV-1 Env 426c, Env-pseudotyped virus produced in 293T cells (HIV-1 clade C strain 426c)
[19] = target: HIV-1 Env 426c.DM (N460D.N463D), Env-pseudotyped virus produced in 293S GnTI- cells (Man5-enriched) (HIV-1 clade C strain 426c)
[20] = target: HIV-1 Env 426c.DM (N460D.N463D), Env-pseudotyped virus produced in 293T cells (HIV-1 clade C strain 426c)
[21] = target: HIV-1 Env 426c.SM (N276D), Env-pseudotyped virus produced in 293S GnTI- cells (Man5-enriched) (HIV-1 clade C strain 426c)
[22] = target: HIV-1 Env 426c.SM (N276D), Env-pseudotyped virus produced in 293T cells (HIV-1 clade C strain 426c)
[23] = target: HIV-1 Env 426c.TM (N276D.N460D.N463D), Env-pseudotyped virus produced in 293S GnTI- cells (Man5-enriched) (HIV-1 clade C strain 426c)
[24] = target: HIV-1 Env 426c.TM (N276D.N460D.N463D), Env-pseudotyped virus produced in 293T cells (HIV-1 clade C strain 426c)
[25] = target: HIV-1 Env 426c.TM4 (S278R.G471S.N460D.N463D), Env-pseudotyped virus produced in 293S GnTI- cells (Man5-enriched) (HIV-1 clade C strain 426c)
[26] = target: HIV-1 Env 426c.TM4 (S278R.G471S.N460D.N463D), Env-pseudotyped virus produced in 293T cells (HIV-1 clade C strain 426c)
[27] = target: HIV-1 CH0505TF (CH505 transmitted/founder) Env on Env-pseudotyped virus produced in 293T cells (HIV-1)
[28] = target: HIV-1 CH0505TF Env on Env-pseudotyped virus produced in 293S/GnTI-/- cells (Man5-enrichment) (HIV-1)
[29] = target: HIV-1 CH0505TF.G458Y Env on Env-pseudotyped virus produced in 293S GnTI-/- cells (Man5-enrichment) (HIV-1)
[30] = target: HIV-1 CH0505TF.G458Y Env on Env-pseudotyped virus produced in 293T cells (HIV-1)
[31] = target: HIV-1 CH0505TF.N280D Env on Env-pseudotyped virus produced in 293S GnTI- cells (HIV-1)
[32] = target: HIV-1 CH0505TF.N280D Env on Env-pseudotyped virus produced in 293T cells (HIV-1)
[33] = target: HIV-1 CH0505TF.S365P Env on Env-pseudotyped virus produced in 293S GnTI- cells (HIV-1)
[34] = target: HIV-1 CH0505TF.S365P Env on Env-pseudotyped virus produced in 293T cells (HIV-1)
[35] = target: CH0505TF G458C Env, pseudotyped virus produced in 293S GnTI- cells (HIV-1)
[36] = target: CH0505TF G458D Env, pseudotyped virus produced in 293S GnTI- cells (HIV-1)
[37] = target: CH0505TF G458E Env, pseudotyped virus produced in 293S GnTI- cells (HIV-1)
[38] = target: CH0505TF G458F Env, pseudotyped virus produced in 293S GnTI- cells (HIV-1)
[39] = target: CH0505TF G458K Env, pseudotyped virus produced in 293S GnTI- cells (HIV-1)
[40] = target: CH0505TF G458L Env, pseudotyped virus produced in 293S GnTI- cells (HIV-1)
[41] = target: CH0505TF G458R Env, pseudotyped virus produced in 293S GnTI- cells (HIV-1)
[42] = target: CH0505TF G458S Env, pseudotyped virus produced in 293S GnTI- cells (HIV-1)
[43] = target: CH0505TF G458W Env, pseudotyped virus produced in 293S GnTI- cells (HIV-1)
[44] = target: CH0505TF G458Y.N280D Env, pseudotyped virus produced in 293S GnTI- cells (HIV-1)

Row | Substance | IC50 (µg/ml) in TZM-bl [1] [µg/mL] | IC50 (µg/ml) in TZM-bl [2] [µg/mL] | IC50 (µg/ml) in TZM-bl [3] [µg/mL] | IC50 (µg/ml) in TZM-bl [4] [µg/mL] | IC50 (µg/ml) in TZM-bl [5] [µg/mL] | IC50 (µg/ml) in TZM-bl [6] [µg/mL] | IC50 (µg/ml) in TZM-bl [7] [µg/mL] | IC50 (µg/ml) in TZM-bl [8] [µg/mL] | IC50 (µg/ml) in TZM-bl [9] [µg/mL] | IC50 (µg/ml) in TZM-bl [10] [µg/mL] | IC50 (µg/ml) in TZM-bl [11] [µg/mL] | IC50 (µg/ml) in TZM-bl [12] [µg/mL] | IC50 (µg/ml) in TZM-bl [13] [µg/mL] | IC50 (µg/ml) in TZM-bl [14] [µg/mL] | IC50 (µg/ml) in TZM-bl cells [15] [µg/mL] | IC50 (µg/ml) in TZM-bl cells [16] [µg/mL] | IC50 (µg/ml) in TZM-bl [18] [µg/mL] | IC50 (µg/ml) in TZM-bl [23] [µg/mL] | IC50 (µg/ml) in TZM-bl [24] [µg/mL] | IC50 (µg/ml) in TZM-bl [25] [µg/mL] | other results
1 | CH235.12 (antibody) | 0.04 | 0.01 | 0.04 | 0.015 | 0.014 | 0.003 | 0.008 | 0.003 | 0.001 | 0.005 | 0.003 | 0.002 | 0.001 | 0.001 | < 0.005 | < 0.005 | 8.95 | 0.07 | 0.09 | 24.2 | IC50 (µg/ml) in TZM-bl [17]: > 25 µg/mL; IC50 (µg/ml) in TZM-bl [19]: > 25 µg/mL; IC50 (µg/ml) in TZM-bl [20]: 0.66 µg/mL; IC50 (µg/ml) in TZM-bl [21]: 0.26 µg/mL; IC50 (µg/ml) in TZM-bl [22]: 1.08 µg/mL; IC50 (µg/ml) in TZM-bl [26]: 0.1 µg/mL; IC50 (µg/ml) in TZM-bl [27]: 0.04 µg/mL; IC50 (µg/ml) in TZM-bl [28]: 0.02 µg/mL; IC50 (µg/ml) in TZM-bl [29]: < 0.02 µg/mL; IC50 (µg/ml) in TZM-bl [30]: 0.01 µg/mL; IC50 (µg/ml) in TZM-bl [31]: 0.02 µg/mL; IC50 (µg/ml) in TZM-bl [32]: 0.06 µg/mL; IC50 (µg/ml) in TZM-bl [33]: 0.01 µg/mL; IC50 (µg/ml) in TZM-bl [34]: 0.03 µg/mL
2 | CH235 UCA2 (antibody) | > 25 | > 25 | > 50 | > 50 | > 25 | 0.16 | > 50 | > 50 | > 50 | > 50 | > 50 | > 50 | > 50 | > 50 | > 10 | > 10 | > 50 | > 50 | > 50 | > 25 | IC50 (µg/ml) in TZM-bl cells [35]: 0.391 µg/mL; IC50 (µg/ml) in TZM-bl cells [36]: > 10 µg/mL; IC50 (µg/ml) in TZM-bl cells [37]: > 10 µg/mL; IC50 (µg/ml) in TZM-bl cells [38]: 0.746 µg/mL; IC50 (µg/ml) in TZM-bl cells [39]: > 10 µg/mL; IC50 (µg/ml) in TZM-bl cells [40]: 0.555 µg/mL; IC50 (µg/ml) in TZM-bl cells [41]: 0.916 µg/mL; IC50 (µg/ml) in TZM-bl cells [42]: > 10 µg/mL; IC50 (µg/ml) in TZM-bl cells [43]: 1.07 µg/mL; IC50 (µg/ml) in TZM-bl cells [44]: > 10 µg/mL; IC50 (µg/ml) in TZM-bl cells [6]: 0.2 µg/mL; IC50 (µg/ml) in TZM-bl [26]: > 25 µg/mL
